In patent US20220177560A1 (Janssen / Centocor, published 2022):

Key:
HU-3pE-beta-Amyloid [1] = molecular target: T1, HU-3pE-beta-Amyloid (human); experiment: SPR (per Example 5); antigen peptide not given
T1 construct: also called the peptide

human Aβ 3pE-28 peptide [2] = molecular target: T2, human Aβ 3pE-28 peptide (human, pyroglutamate (pE) at the N-terminus, residue 3 of Aβ); experiment: SPR; same value as in Table 5
HU-3pE-beta-Amyloid [3] = molecular target: T1, HU-3pE-beta-Amyloid; experiment: SPR; HU-3pE-beta-Amyloid 0.6 to 4.5 nM
human Aβ 1-28 peptide [4] = molecular target: human Aβ 1-28 peptide (human); experiment: SPR; no binding up to the maximum 1.2 µM tested
Scrambled 3pE-28 [5] = molecular target: T3, Scrambled 3pE-28 (human); experiment: SPR; no binding up to the maximum 1.2 µM tested
T3 construct: also called scrambled Aβ 3pE-28; Aβ 3pE-28 peptide with amino acids 3-9 scrambled
T3 peptide: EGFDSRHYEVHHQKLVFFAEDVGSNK

human Aβ 1-28 peptide [6] = molecular target: human Aβ 1-28 peptide (human); experiment: SPR; KD limit divided by the KD for human 3pE Aβ
Scrambled 3pE-28 [7] = molecular target: T3, Scrambled 3pE-28; experiment: SPR; KD limit divided by the KD for human 3pE Aβ
mouse Aβ 3pE-28 peptide [8] = molecular target: T4, mouse Aβ 3pE-28 peptide (mouse, pyroglutamate (pE) at the N-terminus, residue 3 of Aβ); experiment: SPR, antibody captured, peptide injected, 1:1 fit
T4 construct: also called rodent Aβ3pE-28
T4 peptide: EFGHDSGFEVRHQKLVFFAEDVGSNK

mouse Aβ 3pE-28 peptide [9] = molecular target: T4, mouse Aβ 3pE-28 peptide; experiment: SPR; KD for this peptide divided by the KD for human 3pE Aβ
human FcRn [10] = molecular target: T5, human FcRn (human, UniProt P55899 24-297; P61769 21-119); experiment: FcRn binding affinity; method not described; average of 5-6 replicates
T5 construct: the construct is not described; also called FcRn (human)

cynomolgus FcRn [11] = molecular target: T6, cynomolgus FcRn (cynomolgus, UniProt Q8SPV9 24-297; Q8SPW0 21-119); experiment: as above
T6 construct: the construct is not described; also called FcRn (cyno)

human Aβ 3pE-28 peptide [12] = molecular target: T2, human Aβ 3pE-28 peptide; experiment: SPR, antibody captured on anti-human or anti-mouse Ig chip, peptide injected, 1:1 fit; N=9
human FcRn [13] = molecular target: T5, human FcRn; experiment: FcRn binding affinity; method not described
cynomolgus FcRn [14] = molecular target: T6, cynomolgus FcRn; experiment: FcRn binding affinity; method not described

T6 sequence (Q8SPV9 24-297 limits assumed, chain 1 of 2): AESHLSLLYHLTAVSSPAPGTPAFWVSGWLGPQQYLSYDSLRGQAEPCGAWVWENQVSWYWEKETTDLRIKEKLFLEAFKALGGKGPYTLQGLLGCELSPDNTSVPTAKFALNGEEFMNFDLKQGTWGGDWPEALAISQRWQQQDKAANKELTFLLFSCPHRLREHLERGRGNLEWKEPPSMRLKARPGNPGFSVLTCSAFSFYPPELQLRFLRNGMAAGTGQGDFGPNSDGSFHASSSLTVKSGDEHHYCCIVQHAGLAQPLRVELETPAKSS
T6 sequence (Q8SPW0 21-119 limits assumed, chain 2 of 2): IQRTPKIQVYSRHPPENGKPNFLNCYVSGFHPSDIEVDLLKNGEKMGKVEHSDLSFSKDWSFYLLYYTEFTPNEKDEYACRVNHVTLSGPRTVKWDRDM
Chain of human Aβ 1-28 peptide (human) (peptide, as listed by the source): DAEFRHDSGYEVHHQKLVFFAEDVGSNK
T2 sequence (peptide, as listed by the source): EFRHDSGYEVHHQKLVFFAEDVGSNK
T5 sequence (P55899 24-297 limits assumed, chain 1 of 2): as the sequence (Q8SPV9 24-297 limits assumed, chain 1 of 2) above, with D39N, Q44E, S99G, G189S, N190S, M217L, T269S counted along it
T5 sequence (P61769 21-119 limits assumed, chain 2 of 2): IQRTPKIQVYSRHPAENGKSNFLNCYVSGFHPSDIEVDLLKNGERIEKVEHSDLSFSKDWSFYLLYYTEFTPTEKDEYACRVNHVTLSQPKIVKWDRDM

B1: BAMB623 (antibody, human IgG1, kappa, V domains shown)
VH: QVQLVQSGAEVKKPGASVKVSCKASGHVFTSYDMYWVRQAPGQSLEWIGYIDSDNGDTSYNQKFKGKATMTVDTSTSTVYMELSSLRSEDTAVYYCAYYRYAMDYWGQGTLVTVSS
VL: DVVMTQSPLSLPVTLGQPASISCKSSQSLLDSRAKTYLTWLQQRPGQSPRRLIYLVSKLDSGVPDRFSGSGSGTDFTLKISRVEAEDVGVYYCWQGTHFPYTFGGGTKLEIKR
notes: HFA variant of BAMB31, human IgG1
HU-3pE-beta-Amyloid [1]
  Kd: 0.0183 nM

B2: BAMB612 (antibody, human IgG1, kappa, V domains shown)
VH: QVQLVQSGAEVKKPGASVKVSCKASGHVFTSYDMYWVRQSPGQGLEWIGYIDSDNGDTSYNQKFKGRVTLTVDTSTSTVYMELSSLRSEDTAVYYCAYYRYAMDYWGQGTLVTVSS
VL: DVVMTQSPLSLPVTLGQPASISCKSSQSLLDSRAKTYLTWLQQRPGQSPRRLIYLVSKLDSGVPDRFSGSGSGTDFTLKISRVEAEDVGVYYCWQGTHFPYTFGGGTKLEIKR
notes: as for B1
HU-3pE-beta-Amyloid [1]
  Kd: 0.0117 nM

B3: BAMB630 (antibody, human IgG1, kappa, V domains shown)
VH: QVQLVQSGAEVKKPGASVKVSCKASGHVFTSYDMYWVKQAPGQSLEWIGYIDSDNGDTSYNQKFKGKVTLTVDTSTSTVYMELSSLRSEDTAVYYCAYYRYAMDYWGQGTLVTVSS
VL: DVVMTQSPLSLPVTLGQPASISCKSSQSLLDSRAKTYLTWLLQRPGQSPRRLIYLVSKLDSGVPDRFSGSGSGTDFTLKISRVEAEDVGVYYCWQGTHFPYTFGGGTKLEIKR
notes: as for B1
HU-3pE-beta-Amyloid [1]
  Kd: 0.0383 nM

B4: BAMB631 (antibody, human IgG1, kappa, V domains shown)
VH: QVQLVQSGAEVKKPGASVKVSCKASGHVFTSYDMYWVRQAPGQSLEWMGYIDSDNGDTSYNQKFKGRVTLTVDTSTSTVYMELSSLRSEDTAVYYCAYYRYAMDYWGQGTLVTVSS
VL: DVVMTQSPLSLPVTLGQPASISCKSSQSLLDSRAKTYLTWLLQRPGQSPRRLIYLVSKLDSGVPDRFSGSGSGTDFTLKISRVEAEDVGVYYCWQGTHFPYTFGGGTKLEIKR
notes: as for B1
HU-3pE-beta-Amyloid [1]
  Kd: 0.018 nM

B5: BAMB613 (antibody, human IgG1, kappa, V domains shown)
VH: QVQLVQSGAEVKKPGASVKVSCKASGHVFTSYDMYWVRQAPGQGLEWIGYIDSDNGDTSYNQKFKGKVTLTVDTSTSTVYMELSSLRSEDTAVYYCAYYRYAMDYWGQGTLVTVSS
VL: DVVMTQSPLSLPVTLGQPASISCKSSQSLLDSRAKTYLTWLQQRPGQSPRRLIYLVSKLDSGVPDRFSGSGSGTDFTLKISRVEAEDVGVYYCWQGTHFPYTFGGGTKLEIKR
notes: as for B1
HU-3pE-beta-Amyloid [1]
  Kd: 0.0182 nM

B6: BAMB611 (antibody, human IgG1, kappa, V domains shown)
VH: QVQLVQSGAEVKKPGASVKVSCKASGHVFTSYDMYWVRQAPGQGLEWMGYIDSDNGDTSYNQKFKGRVTMTVDTSTSTVYMELSSLRSEDTAVYYCAYYRYAMDYWGQGTLVTVSS
VL: DVVMTQSPLSLPVTLGQPASISCKSSQSLLDSNGKTYLTWFQQRPGQSPRRLIYLVSKLDSGVPDRFSGSGSGTDFTLKISRVEAEDVGVYYCWQGTHFPYTFGGGTKLEIKR
notes: Human framework adapted (HFA) variant of BAMB31, human IgG1
HU-3pE-beta-Amyloid [1]
  Kd: 1.52 nM

B7: BAMB614 (antibody, human IgG1, kappa, V domains shown)
VH: QVQLVQSGAEVKKPGASVKVSCKASGHVFTSYDMYWVRQAPGQGLEWIGYIDSDNGDTSYNQKFKGRVTLTVDTSTSTVYMELSSLRSEDTAVYYCAYYRYAMDYWGQGTLVTVSS
VL: DVVMTQSPLSLPVTLGQPASISCKSSQSLLDSRAKTYLTWLQQRPGQSPRRLIYLVSKLDSGVPDRFSGSGSGTDFTLKISRVEAEDVGVYYCWQGTHFPYTFGGGTKLEIKR
notes: as for B1
HU-3pE-beta-Amyloid [1]
  Kd: 0.016 nM

B8: BAMB674 (antibody, human IgG1, kappa)
heavy: not shown
light: DVVMTQSPLSLPVTLGQPASISCKSSQSLLDSRAKTYLTWLQQRPGQSPRRLIYLVSKLDSGVPDRFSGSGSGTDFTLKISRVEAEDVGVYYCWQGTHFPYTFGGGTKLEIKRTVAAPSVFIFPPSDEQLKSGTASVVCLLNNFYPREAKVQWKVDNALQSGNSQESVTEQDSKDSTYSLSSTLTLSKADYEKHKVYACEVTHQGLSSPVTKSFNRGEC
notes: Lead HFA variant, wild type human IgG1, HCDR2 N55S; also called BAMAB674; BAMB31 HFA mAb, wild type IgG1
Human Aβ 3pE-28 peptide [2]
  Kd: 0.0254 nM
HU-3pE-beta-Amyloid [3]
  Kd: 0.0401 nM
  koff: 0.000136 s⁻¹
  kon: 3.39e+06 M⁻¹ s⁻¹
Human Aβ 1-28 peptide [4]
  Kd: > 1200 nM
Scrambled 3pE-28 [5]
  Kd: > 1200 nM
Human Aβ 1-28 peptide [6]
  Fold Selectivity: > 47000 fold
Scrambled 3pE-28 [7]
  Fold Selectivity: > 47000 fold
Mouse Aβ 3pE-28 peptide [8]
  Kd: 45.5 nM
  koff: 0.000338 s⁻¹
  kon: 7400 M⁻¹ s⁻¹
Mouse Aβ 3pE-28 peptide [9]
  Fold Selectivity: 1790 fold
Human FcRn [10]
  Kd: 349 nM
Cynomolgus FcRn [11]
  Kd: 268 nM
Human Aβ 3pE-28 peptide [12]
  Kd: 0.0254 nM
  koff: 8.32e-05 s⁻¹
  kon: 3.27e+06 M⁻¹ s⁻¹

B9: BAMB700 (antibody, human IgG1, kappa)
heavy: not shown
light: DVVMTQSPLSLPVTLGQPASISCKSSQSLLDSRAKTYLTWLQQRPGQSPRRLIYLVSKLDSGVPDRFSGSGSGTDFTLKISRVEAEDVGVYYCWQGTHFPYTFGQGTKLEIKRTVAAPSVFIFPPSDEQLKSGTASVVCLLNNFYPREAKVQWKVDNALQSGNSQESVTEQDSKDSTYSLSSTLTLSKADYEKHKVYACEVTHQGLSSPVTKSFNRGEC
HU-3pE-beta-Amyloid [3]
  Kd: 0.0342 nM
  koff: 9.86e-05 s⁻¹
  kon: 2.88e+06 M⁻¹ s⁻¹

B10: BAMB701 (antibody, human IgG1, kappa)
heavy: QVQLVQSGAEVKKPGASVKVSCKASGHVFTSYDMYWVRQAPGQGLEWIGYIDSDSGDTSYNQKFKGRVTLTVDTSTSTVYMELSSLRSEDTAVYYCAYYRYAMDYWGQGTLVTVSSASTKGPSVFPLAPSSKSTSGGTAALGCLVKDYFPEPVTVSWNSGALTSGVHTFPAVLQSSGLYSLSSVVTVPSSSLGTQTYICNVNHKPSNTKVDKKVEPKSCDKTHTCPPCPAPELLGGPSVFLFPPKPKDTLYITREPEVTCVVVDVSHEDPEVKFNWYVDGVEVHNAKTKPREEQYNSTYRVVSVLTVLHQDWLNGKEYKCKVSNKALPAPIEKTISKAKGQPREPQVYTLPPSREEMTKNQVSLTCLVKGFYPSDIAVEWESNGQPENNYKTTPPVLDSDGSFFLYSKLTVDKSRWQQGNVFSCSVMHEALHNHYTQKSLSLSPGK
light: DVVMTQSPLSLPVTLGQPASISCKSSQSLLDSRAKTYLTWLQQRPGQSPRRLIYLVSKLDSGVPDRFSGSGSGTDFTLKISRVEAEDVGVYYCWQGTHFPYTFGGGTKVEIKRTVAAPSVFIFPPSDEQLKSGTASVVCLLNNFYPREAKVQWKVDNALQSGNSQESVTEQDSKDSTYSLSSTLTLSKADYEKHKVYACEVTHQGLSSPVTKSFNRGEC
HU-3pE-beta-Amyloid [3]
  Kd: 0.0314 nM
  koff: 9.47e-05 s⁻¹
  kon: 3.01e+06 M⁻¹ s⁻¹

B11: BAMB675 (antibody, human IgG1, kappa)
heavy: QVQLVQSGAEVKKPGASVKVSCKASGHVFTSYDMYWVRQAPGQGLEWIGYIDSDSGDTSYNQKFKGRVTLTVDTSTSTVYMELSSLRSEDTAVYYCAYYRYAMDYWGQGTLVTVSSASTKGPSVFPLAPSSKSTSGGTAALGCLVKDYFPEPVTVSWNSGALTSGVHTFPAVLQSSGLYSLSSVVTVPSSSLGTQTYICNVNHKPSNTKVDKKVEPKSCDKTHTCPPCPAPELLGGPSVFLFPPKPKDTLYITREPEVTCVVVDVSHEDPEVKFNWYVDGVEVHNAKTKPREEQYNSTYRVVSVLTVLHQDWLNGKEYKCKVSNKALPAPIEKTISKAKGQPREPQVYTLPPSREEMTKNQVSLTCLVKGFYPSDIAVEWESNGQPENNYKTTPPVLDSDGSFFLYSKLTVDKSRWQQGNVFSCSVMHEALHNHYTQKSLSLSPGK
light: DVVMTQSPLSLPVTLGQPASISCKSSQSLLDSRAKTYLTWLQQRPGQSPRRLIYLVSKLDSGVPDRFSGSGSGTDFTLKISRVEAEDVGVYYCWQGTHFPYTFGGGTKLEIKRTVAAPSVFIFPPSDEQLKSGTASVVCLLNNFYPREAKVQWKVDNALQSGNSQESVTEQDSKDSTYSLSSTLTLSKADYEKHKVYACEVTHQGLSSPVTKSFNRGEC
notes: Same V regions as BAMB674; human IgG1 with M37Y, S39T, T41E (YTE) in the Fc (numbering on the constant region, GenBank AEV43323); also called BAMB31 HFA mAb, +YTE IgG1; +YTE mAb
Human Aβ 3pE-28 peptide [2]
  Kd: 0.0257 nM
HU-3pE-beta-Amyloid [3]
  Kd: 0.0443 nM
  koff: 0.000166 s⁻¹
  kon: 3.74e+06 M⁻¹ s⁻¹
Human FcRn [13]
  fold higher affinity compared with wt IgG1 (BAMB674): ~3 fold
Cynomolgus FcRn [14]
  fold higher affinity compared with wt IgG1 (BAMB674): ~3 fold
Human Aβ 1-28 peptide [4]
  Kd: > 1200 nM
Scrambled 3pE-28 [5]
  Kd: > 1200 nM
Human Aβ 1-28 peptide [6]
  Fold Selectivity: > 46000 fold
Scrambled 3pE-28 [7]
  Fold Selectivity: > 46000 fold
Mouse Aβ 3pE-28 peptide [8]
  Kd: 77.5 nM
  koff: 0.000333 s⁻¹
  kon: 4680 M⁻¹ s⁻¹
Mouse Aβ 3pE-28 peptide [9]
  Fold Selectivity: 3010 fold
Human FcRn [10]
  Kd: 111 nM
Cynomolgus FcRn [11]
  Kd: 86.4 nM
Human Aβ 3pE-28 peptide [12]
  Kd: 0.0257 nM
  koff: 8.24e-05 s⁻¹
  kon: 3.24e+06 M⁻¹ s⁻¹

B12: BAMB246 (human IgG1 chimera) (antibody)
heavy: not shown
light: DVVMTQTPLTLSVTIGQPASISCKSSQSLLDSNGKTYLTWLLQRPGQSPKRLIYLVSKLDSGVPDRFTGSGAGTDFTLKIIRVEAEDLGVYYCWQGTHFPYTFGGGTKLEIKRTVAAPSVFIFPPSDEQLKSGTASVVCLLNNFYPREAKVQWKVDNALQSGNSQESVTEQDSKDSTYSLSSTLTLSKADYEKHKVYACEVTHQGLSSPVTKSFNRGEC
notes: Mouse variable regions on a human IgG1 constant region; also called human chimeric parent; huIgG1 chimera
Human Aβ 1-28 peptide [4]
  Kd: > 1200 nM
Scrambled 3pE-28 [5]
  Kd: > 1200 nM
Human Aβ 1-28 peptide [6]
  Fold Selectivity: > 95000 fold
Scrambled 3pE-28 [7]
  Fold Selectivity: > 95000 fold
Mouse Aβ 3pE-28 peptide [8]
  Kd: 39.6 nM
  koff: 0.000404 s⁻¹
  kon: 10200 M⁻¹ s⁻¹
HU-3pE-beta-Amyloid [1]
  Kd: 0.0139 nM
Mouse Aβ 3pE-28 peptide [9]
  Fold Selectivity: 3140 fold
Human Aβ 3pE-28 peptide [12]
  Kd: 0.0126 nM
  koff: 4.42e-05 s⁻¹
  kon: 3.53e+06 M⁻¹ s⁻¹
